Test results from paper PMC11514473, “The transition state for coupled folding and binding of a disordered DNA binding domain resembles the unbound state” (Nucleic Acids Research, 2024).
Where no end group is shown, it is not given here.

T1: CREB 285bZIP (bZIP domain of human cAMP-response element binding protein, residues 285-339, cysteines … (human))
T1 chain: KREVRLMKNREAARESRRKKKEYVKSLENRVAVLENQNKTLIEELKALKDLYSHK

T2: CREB 285bZIP wild type (pseudo-WT, Cys to Ser) (human, UniProt P16220-1 285-339, C300S;C310S;C337S)
T2 sequence: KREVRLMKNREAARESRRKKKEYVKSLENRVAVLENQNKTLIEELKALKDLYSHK


Assays:
[1] = target: T1, CREB 285bZIP (bZIP domain of human …); test: stopped-flow urea refolding kinetics (intrinsic tyrosine fluorescence); 285bZIP in 8 M urea mixed 1:10 with buffer of lower urea concentrations; 2.2, 4.5 and 9.1 uM CREB; excitation 278 nm, 305 nm cut-off filter; 25.0 C; traces fit to a 2-state reversible 2P to P2 model; L and k1 extrapolated by straight line fits to the absence of urea; dimer to monomers; conditions: both partners purified
[2] = target: T2, CREB 285bZIP wild type (pseudo-WT, Cys …); test: NMR; two-fold excess DNA over dimer; basic region folds to helix; 10 mM Mg2+; 10 mM MES pH 6.5, 150 mM NaCl, 10 mM MgCl2, 0.05% Tween-20, 25 C; NMR: 10 mM Tris-d11, 150 mM NaCl, 10 mM MgCl2, 1 mM NaN3, 5% D2O (NOE at 25 C); conditions: protein: recombinant; tags: extra N-terminal Gly after TEV cleavage; His6-GB1 removed; chain copies: 2; label: none; blunt, self-complementary, 2 copies

Row | Binder | Kd [1] [nM] | kon [1] [M⁻¹ s⁻¹] | binding result [2]
1 | CREB 285bZIP (bZIP domain of human cAMP-response element binding protein, residues 285-339, cysteines replaced with serines) (domain or fragment, also: homodimer) KREVRLMKNREAARESRRKKKEYVKSLENRVAVLENQNKTLIEELKALKDLYSHK | 11 ± 2 | 7.1e+06 ± 500000 | 
2 | symmetric CRE DNA (NMR) (dsDNA) DNA 1: AGATGACGTCATCT DNA 2: AGATGACGTCATCT |  |  | binds
